Key:
[1] = molecular target: CXCR4 (human) (UniProt P61073); experiment: competition of 125I SDF-1α on CEM-NKr cells
[2] = molecular target: T1, CXCR4 (human, UniProt P61073 1-352); experiment: displacement of 125I SDF-1α on CEM-NKr cells, DisplaceMax panel
T1 construct: whole, on cells; also called the SDF-1 receptor expressed on CEM-NKr; the hallmark SDF-1 receptor
T1 sequence (P61073 whole entry): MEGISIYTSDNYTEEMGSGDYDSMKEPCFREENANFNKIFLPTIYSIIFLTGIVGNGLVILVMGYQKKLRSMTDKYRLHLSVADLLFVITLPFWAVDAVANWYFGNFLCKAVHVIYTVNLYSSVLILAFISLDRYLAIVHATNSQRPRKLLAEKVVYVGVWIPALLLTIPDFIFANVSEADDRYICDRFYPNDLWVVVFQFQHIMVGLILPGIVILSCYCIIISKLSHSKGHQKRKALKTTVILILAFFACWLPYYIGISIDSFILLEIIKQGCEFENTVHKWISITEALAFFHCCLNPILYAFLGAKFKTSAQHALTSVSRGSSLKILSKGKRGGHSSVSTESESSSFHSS

CXCR4 (human), sequence (P61073 whole entry): as above

Molecule	IC50 [1] [nM]	binding result [2]
SDF-1β (human) (from UniProt P48061 22-93) (ligand)	1.5	
I-TAC (mouse) (ligand, UniProt Q9JHH5 22-100, looked up, also called CXCL11) FLMFKQGRCLCIGPGMKAVKMAEIEKASVIYPSNGCDKVEVIVTMKAHKRQRCLDPRSKQARLIMQAIEKKNFLRRQNM		no binding

Source: patent publication US20050214287A1 (published 2005)
